Assay results published in patent publication US5668264.

Target: PDGF AB (Homo sapiens) (UniProt P04085+P01127)
Test: filter
Settings: 2'-F on all C and U; random starting pool

PDGF AB (Homo sapiens), sequence (P01127 82-190, chain 2 of 2, other chains not shown): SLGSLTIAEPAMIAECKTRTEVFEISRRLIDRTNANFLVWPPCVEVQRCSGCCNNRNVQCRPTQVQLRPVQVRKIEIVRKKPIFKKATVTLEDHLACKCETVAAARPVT

“GGGAGACAAGAAUAACGCUCAANNNNNNNNNNNNNNNNNNNNNNNNNNNNNNNNNNNNNNNNNNNNNNNNNNUUCGACAGGAGGCUCACAACAGGC [random 2'-F pyrimidine RNA pool (50N)]” gave a Kd of 35 nM.
